In patent publication US12103979B2, “N-acetylated and non-acetylated dipeptides containing arginine to reduce the viscosity of viscous compositions of therapeutic polypeptides” (AMGEN INC., priority 2017, dated 2024):

Experiments:
[1] = pI of therapeutic antibodies of Table 1; format: physicochemical
[2] = Viscosity of therapeutic antibodies of Table 1 at exemplary concentration; format: physicochemical; settings: at the Conc. (133.9-162.5 mg/ml)

Molecule	pl [1]	Viscosity (cP) [2] [cP]
CGRP: therapeutic antibody; IgG2, Lambda; LC SEQ ID NO 29, HC SEQ ID NO 30 (antibody, listed as Homo sapiens) heavy: MEFGLSWVFLVALLRGVQCQVQLVESGGGVVQPGRSLRLSCAASGFTFSSFGMHWVRQAPGKGLEWVAVISFDGSIKYSVDSVKGRFTISRDNSKNTLFLQMNSLRAEDTAVYYCARDRLNYYDSSGYYHYKYYGMAVWGQGTTVTVSSASTKGPSVFPLAPCSRSTSESTAALGCLVKDYFPEPVTVSWNSGALTSGVHTFPAVLQSSGLYSLSSVVTVPSSNFGTQTYTCNVDHKPSNTKVDKTVERKCCVECPPCPAPPVAGPSVFLFPPKPKDTLMISRTPEVTCVVVDVSHEDPEVQFNWYVDGVEVHNAKTKPREEQFNSTFRVVSVLTVVHQDWLNGKEYKCKVSNKGLPAPIEKTISKTKGQPREPQVYTLPPSREEMTKNQVSLTCLVKGFYPSDIAVEWESNGQPENNYKTTPPMLDSDGSFFLYSKLTVDKSRWQQGNVFSCSVMHEALHNHYTQKSLSLSPGK light: MTCSPLLLTLLIHCTGSWAQSVLTQPPSVSAAPGQKVTISCSGSSSNIGNNYVSWYQQLPGTAPKLLIYDNNKRPSGIPDRFSGSKSGTSTTLGITGLQTGDEADYYCGTWDSRLSAVVFGGGTKLTVLGQPKANPTVTLFPPSSEELQANKATLVCLISDFYPGAVTVAWKADGSPVKAGVETTKPSKQSNNKYAASSYLSLTPEQWKSHRSYSCQVTHEGSTVEKTVAPTECS	8.8	9.6
Hepcidin: therapeutic antibody; IgG2, Lambda; LC SEQ ID NO 31, HC SEQ ID NO 32 (antibody, listed as Homo sapiens) heavy: MEFGLSWVFLVALLRGVQCQVQLVESGGGVVQPGRSLRLSCAASGFTFSSYGMHWVRQAPGKGLEWVAVIWYAESNKYYADSVKGRFTISRDNSKNTLYLQMNSLRAEDTAVYYCARAQEGIAPDAFDIWGQGTMVTVSSASTKGPSVFPLAPCSRSTSESTAALGCLVKDYFPEPVTVSWNSGALTSGVHTFPAVLQSSGLYSLSSVVTVPSSNFGTQTYTCNVDHKPSNTKVDKTVERKCCVECPPCPAPPVAGPSVFLFPPKPKDTLMISRTPEVTCVVVDVSHEDPEVQFNWYVDGVEVHNAKTKPREEQFNSTFRVVSVLTVVHQDWLNGKEYKCKVSNKGLPAPIEKTISKTKGQPREPQVYTLPPSREEMTKNQVSLTCLVKGFYPSDIAVEWESNGQPENNYKTTPPMLDSDGSFFLYSKLTVDKSRWQQGNVFSCSVMHEALHNHYTQKSLSLSPGK light: MDMRVPAQLLGLLLLWLRGARCYELTQPPSVSVSPGQTATITCSGDKLGERYASWYQQRPGQSPVLVIYQDIKRPSGIPERFSGSNSGNTATLTISGTQAMDEADYFCQAWYSSTNVLFGGGTKLTVLGQPKAAPSVTLFPPSSEELQANKATLVCLISDFYPGAVTVAWKADSSPVKAGVETTTPSKQSNNKYAASSYLSLTPEQWKSHRSYSCQVTHEGSTVEKTVAPTECS	7.3	9.9
TSLP: therapeutic antibody; IgG2, Lambda; LC SEQ ID NO 69, HC SEQ ID NO 70 (antibody, listed as Homo sapiens) heavy: MGSTAILGLLLAVLQGGRAQMQLVESGGGVVQPGRSLRLSCAASGFTFRTYGMHWVRQAPGKGLEWVAVIWYDGSNKHYADSVKGRFTITRDNSKNTLNLQMNSLRAEDTAVYYCARAPQWELVHEAFDIWGQGTMVTVSSASTKGPSVFPLAPCSRSTSESTAALGCLVKDYFPEPVTVSWNSGALTSGVHTFPAVLQSSGLYSLSSVVTVPSSNFGTQTYTCNVDHKPSNTKVDKTVERKCCVECPPCPAPPVAGPSVFLFPPKPKDTLMISRTPEVTCVVVDVSHEDPEVQFNWYVDGVEVHNAKTKPREEQFNSTFRVVSVLTVVHQDWLNGKEYKCKVSNKGLPAPIEKTISKTKGQPREPQVYTLPPSREEMTKNQVSLTCLVKGFYPSDIAVEWESNGQPENNYKTTPPMLDSDGSFFLYSKLTVDKSRWQQGNVFSCSVMHEALHNHYTQKSLSLSPGK light: MGSTAILGLLLAVLQGGRASYVLTQPPSVSVAPGQTARITCGGNNLGSKSVHWYQQKPGQAPVLVVYDDSDRPSWIPERFSGSNSGNTATLTISRGEAGDEADYYCQVWDSSSDHVVFGGGTKLTVLGQPKAAPSVTLFPPSSEELQANKATLVCLISDFYPGAVTVAWKADSSPVKAGVETTTPSKQSNNKYAASSYLSLTPEQWKSHRSYSCQVTHEGSTVEKTVAPTECS	7.2	21.4
Dkk1 (11H10): therapeutic antibody; IgG2, Kappa; LC SEQ ID NO 71, HC SEQ ID NO 72 (antibody, listed as Homo sapiens) heavy: MDIRLSLAFLVLFIKGVQCEVQLVESGGGLVQPANSLKLSCAASGFTFSDYAMAWVRQSPKKGLEWVATIIYDGSSTYYRDSVKGRFTISRDNAKSTLYLQMDSLRSEDTATYYCATGLGIATDYFDYWGQGVLVTVSSAETTAPSVYPLAPGTALKSNSMVTLGCLVKGYFPEPVTVTWNSGALSSGVHTFPAVLQSGLYTLTSSVTVPSSTWPSQTVTCNVAHPASSTKVDKKIVPRNCGGDCKPCICTGSEVSSVFIFPPKPKDVLTITLTPKVTCVVVDISQDDPEVHFSWFVDDVEVHTAQTRPPEEQFNSTFRSVSELPILHQDWLNGRTFRCKVTSAAFPSPIEKTISKPEGRTQVPHVYTMSPTKEEMTQNEVSITCMVKGFYPPDIYVEWQMNGQPQENYKNTPPTMDTDGSYFLYSKLNVKKEKWQQGNTFTCSVLHEGLHNHHTEKSLSHSPGK light: MGVPTHLLGLLLLWITHAICDIRMTQSPASLSASLGETVNIECLASEDIYSDLAWYQQKPGKSPQLLIYNANSLQNGVPSRFSGSGSGTQYSLKINSLQSEDVATYFCQQYNNYPPTFGGGTKLELKRADAAPTVSIFPPSTEQLATGGASVVCLMNNFYPRDISVKWKIDGTERRDGVLDSVTDQDSKDSTYSMSSTLSLTKADYESHNLYTCEVVHKTSSSPVVKSFNRNEC	8.2	22.5
PCSK9: therapeutic antibody; IgG2, Lambda; LC SEQ ID NO 73, HC SEQ ID NO 74 (antibody, listed as Homo sapiens) heavy: MDWTWRILFLVAAATGVHSEVQLVQSGAEVKKPGASVKVSCKASGYTLTSYGISWVRQAPGQGLEWMGWVSFYNGNTNYAQKLQGRGTMTTDPSTSTAYMELRSLRSDDTAVYYCARGYGMDVWGQGTTVTVSSASTKGPSVFPLAPCSRSTSESTAALGCLVKDYFPEPVTVSWNSGALTSGVHTFPAVLQSSGLYSLSSVVTVPSSNFGTQTYTCNVDHKPSNTKVDKTVERKCCVECPPCPAPPVAGPSVFLFPPKPKDTLMISRTPEVTCVVVDVSHEDPEVQFNWYVDGVEVHNAKTKPREEQFNSTFRVVSVLTVVHQDWLNGKEYKCKVSNKGLPAPIEKTISKTKGQPREPQVYTLPPSREEMTKNQVSLTCLVKGFYPSDIAVEWESNGQPENNYKTTPPMLDSDGSFFLYSKLTVDKSRWQQGNVFSCSVMHEALHNHYTQKSLSLSPGK light: MDMRVPAQLLGLLLLWLRGARCESALTQPASVSGSPGQSITISCTGTSSDVGGYNSVSWYQQHPGKAPKLMIYEVSNRPSGVSNRFSGSKSGNTASLTISGLQAEDEADYYCNSYTSTSMVFGGGTKLTVLGQPKAAPSVTLFPPSSEELQANKATLVCLISDFYPGAVTVAWKADSSPVKAGVETTTPSKQSNNKYAASSYLSLTPEQWKSHRSYSCQVTHEGSTVEKTVAPTECS	8.1	
Sclerostin (2B8): therapeutic antibody; IgG2, Lambda; LC SEQ ID NO 79, HC SEQ ID NO 80 (antibody, listed as Homo sapiens) heavy: MEFGLSWVFLVALLRGVQCQVQLVESGGGVVQPGRSLRLSCAASGFTFSSYVMHWVRQAPGKGLEWVAVIWYDGSNKYYADSVKGRFTISRDNSKNTLYLQMNSLRAEDTAVYYCAREGYDYGEDYYYYGMDVWGQGTTVTVSSASTKGPSVFPLAPCSRSTSESTAALGCLVKDYFPEPVTVSWNSGALTSGVHTFPAVLQSSGLYSLSSVVTVPSSNFGTQTYTCNVDHKPSNTKVDKTVERKCCVECPPCPAPPVAGPSVFLFPPKPKDTLMISRTPEVTCVVVDVSHEDPEVQFNWYVDGVEVHNAKTKPREEQFNSTFRVVSVLTVVHQDWLNGKEYKCKVSNKGLPAPIEKTISKTKGQPREPQVYTLPPSREEMTKNQVSLTCLVKGFYPSDIAVEWESNGQPENNYKTTPPMLDSDGSFFLYSKLTVDKSRWQQGNVFSCSVMHEALHNHYTQKSLSLSPGK light: MAWAPLLLTLLAHCTGSWANFMLTQPHSVSESPGKTVAISCTRNSGSIASNSVQWYQQRPGSSPTTVIFEDNQRPSGVPDRFSGSIDSSSNSASLTISGLKTEDEADYYCQSYDSNNWVFGGGTKLTVLGQPKANPTVTLFPPSSEELQANKATLVCLISDFYPGAVTVAWKADGSPVKAGVETTKPSKQSNNKYAASSYLSLTPEQWKSHRSYSCQVTHEGSTVEKTVAPTECS	6.7	30.0
